In the Human Domainome abundance scans (Beltran et al. 2025):
± gives the uncertainty stated by the source.

B1: Serine/threonine-protein kinase LATS1, residues 98 to 141; numbered along this chain, O95835 (parent)
chain: TSEVNPQMLQDLQAAGFDEDMVIQALQKTNNRSIEAAIEFISKM

Variants of: B1
Test: abundance fitness (aPCA) (normalised: wild type 0, dead -1); higher = more abundant; growth selection in yeast, the domain comes from the species named
Settings: Homo sapiens

Abundance fitness, by site and new letter:
Q24: Y -0.222 ± 0.13 | S -0.196 ± 0.043 | V -0.033 ± 0.033 | R -0.103 ± 0.033 | M -0.028 ± 0.037 | N -0.146 ± 0.072 | P -0.323 ± 0.048 | I -0.015 ± 0.083 | F 0.019 ± 0.13
A14: L -0.188 ± 0.036 | Q -0.132 ± 0.051 | R -0.095 ± 0.033 | W -0.706 ± 0.071 | D 0.04 ± 0.072 | V -0.308 ± 0.036 | F -0.455 ± 0.079 | C -0.325 ± 0.053 | M -0.151 ± 0.058
Q27: E -0.041 ± 0.042 | A -0.125 ± 0.037 | L -0.068 ± 0.04 | P -0.597 ± 0.055 | R -0.042 ± 0.031 | W -0.57 ± 0.042
I41: H -0.272 ± 0.07 | M 0.046 ± 0.048 | C -0.225 ± 0.056 | E -0.165 ± 0.042 | L -0.046 ± 0.039 | R -0.361 ± 0.031
D11: Q 0.092 ± 0.04 | L -0.153 ± 0.036 | P -1.08 ± 0.15 | T -0.048 ± 0.05 | A -0.017 ± 0.033 | H -0.182 ± 0.065
M44: A -0.053 ± 0.034 | R -0.057 ± 0.039 | C -0.037 ± 0.051 | S -0.04 ± 0.059 | G -0.063 ± 0.043 | W -0.232 ± 0.053 | V 0.011 ± 0.041
L12: M -0.119 ± 0.081 | G -0.57 ± 0.038 | P -0.644 ± 0.12 | R -0.715 ± 0.043 | S -0.616 ± 0.06 | W -0.951 ± 0.057 | Q -0.594 ± 0.08 | D -0.469 ± 0.1 | V -0.562 ± 0.039 | A -0.607 ± 0.049
V4: I -0.15 ± 0.12 | R -0.515 ± 0.036 | M -0.453 ± 0.054 | S -0.444 ± 0.038 | G -0.388 ± 0.035 | H -0.262 ± 0.055 | E -0.402 ± 0.045 | T -0.218 ± 0.053
I34: N -0.123 ± 0.22 | P -0.051 ± 0.045 | C -0.02 ± 0.043 | A -0.043 ± 0.034 | M 0.04 ± 0.037 | D -0.257 ± 0.071 | Q -0.09 ± 0.042 | L -0.005 ± 0.037 | W -0.505 ± 0.06
A25: V -0.68 ± 0.05 | D -0.541 ± 0.088 | R -0.768 ± 0.046 | I -0.631 ± 0.24 | L -0.802 ± 0.057 | S -0.295 ± 0.035
R32: V 0.017 ± 0.036 | E 0.095 ± 0.042 | A 0.089 ± 0.039 | Y -0.222 ± 0.18
S33: A -0.797 ± 0.055 | P -0.627 ± 0.06 | D -0.4 ± 0.05 | M -0.96 ± 0.083 | H -0.934 ± 0.11 | T -0.555 ± 0.063 | N -0.56 ± 0.3 | Q -1.02 ± 0.11 | E -0.665 ± 0.086
L26: A -0.523 ± 0.037 | W -0.683 ± 0.045 | I -0.292 ± 0.074 | P -0.341 ± 0.052 | E -0.263 ± 0.041
E3: V -0.802 ± 0.054 | G -0.117 ± 0.034 | C -0.855 ± 0.073 | L -0.326 ± 0.046 | R -0.202 ± 0.035 | Y -0.2 ± 0.14 | K -0.042 ± 0.05 | A -0.223 ± 0.041 | P -0.079 ± 0.049 | S -0.332 ± 0.041
K28: F -0.148 ± 0.05 | T -0.259 ± 0.067 | Q -0.024 ± 0.057 | A 0.12 ± 0.038 | E 0.034 ± 0.039 | G -0.08 ± 0.031 | C -0.129 ± 0.05 | Y -0.027 ± 0.075 | P -0.74 ± 0.072 | M -0.037 ± 0.046 | W -0.444 ± 0.035 | H 0.073 ± 0.054
I38: H -0.203 ± 0.076 | W -0.339 ± 0.043 | F -0.42 ± 0.072 | R 0.003 ± 0.03 | Q -0.021 ± 0.048 | S -0.113 ± 0.042
F17: A -0.449 ± 0.045 | V -0.501 ± 0.04 | E -0.272 ± 0.043 | I -0.399 ± 0.086 | N -0.116 ± 0.26 | W -0.198 ± 0.048 | L -0.342 ± 0.038
Q10: A 0.015 ± 0.037 | V -0.253 ± 0.038 | F -0.247 ± 0.059 | D -0.12 ± 0.054 | M -0.128 ± 0.043 | S -0.07 ± 0.034 | R 0.012 ± 0.037
A36: T -0.258 ± 0.053 | N -0.327 ± 0.13 | R -0.404 ± 0.032 | D -0.068 ± 0.058 | Q -0.267 ± 0.056 | P -0.36 ± 0.04 | M -0.316 ± 0.05 | G -0.195 ± 0.031 | K -0.21 ± 0.05 | F -0.77 ± 0.085
A15: Q 0.042 ± 0.056 | V -0.429 ± 0.039 | I -0.238 ± 0.054 | W -0.442 ± 0.047 | Y -0.181 ± 0.07 | D -0.358 ± 0.068 | M 0.103 ± 0.062
V22: Q -0.48 ± 0.065 | F -0.807 ± 0.17 | M -0.674 ± 0.066 | E -0.355 ± 0.052 | P -0.47 ± 0.05 | A 0.18 ± 0.037 | S 0.183 ± 0.041
P6: C -0.219 ± 0.098 | Y -0.119 ± 0.064 | E 0.07 ± 0.042 | M 0.005 ± 0.039 | H -0.001 ± 0.083
T29: V -0.191 ± 0.039 | Q -0.563 ± 0.071 | M -0.919 ± 0.1 | C -0.375 ± 0.043 | S -0.463 ± 0.04 | E -0.529 ± 0.046
L9: A 0.004 ± 0.049 | V -0.045 ± 0.039 | W -0.649 ± 0.066 | Y -0.421 ± 0.38 | G -0.481 ± 0.082 | H -0.35 ± 0.17 | E -0.273 ± 0.049
K43: Y -0.194 ± 0.079 | S -0.035 ± 0.042 | V -0.135 ± 0.04 | C -0.156 ± 0.093 | P -0.333 ± 0.057 | R -0.027 ± 0.032 | H 0.169 ± 0.14 | N -0.038 ± 0.18 | E 0.133 ± 0.042
E35: L -0.541 ± 0.059 | F -0.468 ± 0.12 | S -0.115 ± 0.042 | N -0.204 ± 0.06 | P -0.164 ± 0.055 | G -0.173 ± 0.031 | Q -0.141 ± 0.041
I23: S -0.183 ± 0.038 | P -0.591 ± 0.095 | N -0.104 ± 0.064 | L -0.188 ± 0.044 | H -0.314 ± 0.064 | W -0.373 ± 0.045
S2: R -0.054 ± 0.034 | Q -0.035 ± 0.054 | V -0.311 ± 0.039 | A -0.07 ± 0.04 | E -0.014 ± 0.06 | H -0.168 ± 0.14 | I -0.035 ± 0.12 | F -0.108 ± 0.085
A37: R -0.649 ± 0.046 | D -0.43 ± 0.055 | Q -0.428 ± 0.051 | Y -0.762 ± 0.19 | S -0.441 ± 0.05 | K -1.03 ± 0.29
T1: M -0.11 ± 0.067 | F -0.032 ± 0.23 | L -0.303 ± 0.071 | Q -0.062 ± 0.1 | Y -0.26 ± 0.11 | K -0.012 ± 0.047 | N 0.316 ± 0.13 | I -0.079 ± 0.056 | W -0.197 ± 0.054
M8: S -0.543 ± 0.04 | F -0.162 ± 0.057 | R -0.597 ± 0.043 | I -0.431 ± 0.062
G16: C -0.914 ± 0.11 | V -1.11 ± 0.085 | P -0.687 ± 0.093 | N -0.494 ± 0.17 | H -0.275 ± 0.38 | T -0.72 ± 0.073 | D -0.5 ± 0.06 | I -1.34 ± 0.22 | E -0.617 ± 0.055
N31: D -0.506 ± 0.081 | L -0.75 ± 0.049 | W -0.557 ± 0.046 | P -0.459 ± 0.048 | T -0.645 ± 0.069 | E -0.253 ± 0.042
D20: P -0.166 ± 0.055 | T -0.059 ± 0.049 | S -0.063 ± 0.044 | W -0.268 ± 0.042 | I -0.384 ± 0.087 | L -0.288 ± 0.037 | E 0.007 ± 0.045 | Y -0.535 ± 0.12 | C -0.208 ± 0.041
N5: Q -0.528 ± 0.071 | Y -0.964 ± 0.1 | F -1.21 ± 0.2 | D -0.028 ± 0.051 | I -0.82 ± 0.11 | K -0.638 ± 0.052 | H -0.211 ± 0.075 | P -0.637 ± 0.052 | V -0.716 ± 0.065 | L -0.878 ± 0.06
M21: D 0.023 ± 0.05 | G -0.363 ± 0.036 | P -0.491 ± 0.051 | T 0.088 ± 0.053 | F -0.291 ± 0.066 | L 0.032 ± 0.042 | V 0.059 ± 0.037 | N -0.148 ± 0.071
F40: M -0.042 ± 0.038 | E 0.103 ± 0.037 | I -0.171 ± 0.057 | P -0.157 ± 0.055 | S -0.131 ± 0.037 | G -0.163 ± 0.032 | T -0.16 ± 0.045 | V -0.097 ± 0.036
S42: Y -0.142 ± 0.061 | G -0.002 ± 0.03 | A -0.023 ± 0.033 | V -0.219 ± 0.035 | P -0.401 ± 0.044 | K 0.055 ± 0.077
D18: M -0.59 ± 0.058 | H -0.159 ± 0.1 | T -0.204 ± 0.047 | V -0.597 ± 0.044 | P -0.113 ± 0.057 | Q -0.077 ± 0.068 | G -0.169 ± 0.035 | R -0.22 ± 0.036 | E 0.036 ± 0.04
E19: W -0.75 ± 0.065 | L -0.26 ± 0.041 | G -0.103 ± 0.035 | F -0.31 ± 0.054 | C -0.218 ± 0.048 | K 0.08 ± 0.045 | M -0.228 ± 0.05 | T 0.046 ± 0.042 | Q -0.012 ± 0.044
Q7: E -0.036 ± 0.051 | Y -0.345 ± 0.073 | F -0.549 ± 0.096 | T -0.079 ± 0.053 | V -0.147 ± 0.034 | R -0.129 ± 0.031 | D -0.111 ± 0.071 | N -0.227 ± 0.069 | I -0.223 ± 0.05 | M -0.178 ± 0.074
Q13: V 0.067 ± 0.038 | A -0.131 ± 0.042 | D -0.538 ± 0.11 | E -0.18 ± 0.04 | M 0.046 ± 0.06 | C 0.037 ± 0.049
E39: R -0.224 ± 0.033 | S -0.146 ± 0.036 | M -0.286 ± 0.093 | K -0.115 ± 0.056 | H -0.084 ± 0.082 | N -0.111 ± 0.069 | V -0.717 ± 0.047
N30: H -0.206 ± 0.24 | L -1.14 ± 0.097 | F -1.05 ± 0.15 | P -0.529 ± 0.061 | K -0.021 ± 0.042 | A -0.193 ± 0.033 | W -1.07 ± 0.086 | D -0.093 ± 0.055 | T -0.533 ± 0.055 | E 0.015 ± 0.04
